The numbers were not newly measured in article PMC10302803, which cites them from elsewhere.

The data set deals with VEGF-P3CYC.
VEGF-P3CYC, sequence (main, as listed by the source): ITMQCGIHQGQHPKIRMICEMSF

As a reminder, the Kd is the concentration at which binding is half-saturated. Turning to VEGFR2 (from UniProt P35968), the Kd is 11 nM.
